Source: patent US20110129470A1

Molecular target: CD33 (cell surface antigen on HL60 and NB4 cells) (UniProt P20138)
Experiment: cell-based or functional assay

Chain of CD33 (cell surface antigen on HL60 and NB4 cells) (P20138 18-364 limits assumed): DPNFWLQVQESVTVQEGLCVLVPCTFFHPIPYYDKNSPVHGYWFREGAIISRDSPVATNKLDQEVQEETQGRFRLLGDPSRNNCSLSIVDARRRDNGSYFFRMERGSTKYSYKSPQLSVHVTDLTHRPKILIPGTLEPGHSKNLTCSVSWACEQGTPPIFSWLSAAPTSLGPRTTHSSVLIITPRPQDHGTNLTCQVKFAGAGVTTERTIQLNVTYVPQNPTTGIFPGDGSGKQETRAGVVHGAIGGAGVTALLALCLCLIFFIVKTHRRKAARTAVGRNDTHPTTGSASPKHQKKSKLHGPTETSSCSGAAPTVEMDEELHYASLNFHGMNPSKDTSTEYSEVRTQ
Chain of HuM195-dCK conjugate (wild type dCK chemically conjugated to the humanized anti-CD33 monoclonal antibody HuM195) (B2R8V6 whole entry): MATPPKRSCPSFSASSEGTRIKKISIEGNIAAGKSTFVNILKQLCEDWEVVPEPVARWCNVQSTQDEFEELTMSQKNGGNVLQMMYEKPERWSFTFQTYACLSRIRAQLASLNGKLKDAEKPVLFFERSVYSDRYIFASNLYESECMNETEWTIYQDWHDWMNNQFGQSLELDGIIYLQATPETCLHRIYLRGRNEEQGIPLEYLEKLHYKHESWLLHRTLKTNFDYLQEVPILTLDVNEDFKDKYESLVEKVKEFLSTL

“HuM195-dCK conjugate (wild type dCK chemically conjugated to the humanized anti-CD33 monoclonal antibody HuM195)” showed an additional cell killing over AraC alone (Annexin V and propidium iodide apoptosis assay), HL60 cells of 20%, a cell death (Annexin V and propidium iodide apoptosis assay), HL60 cells, conjugate in combination with AraC 1 µM of 70% and a cell killing (apoptosis assay), NB4 cells, conjugate with AraC 250 nM of 65%.
